Test results as given in paper PMC9182242, “Copper Binding and Oligomerization Studies of the Metal Resistance Determinant CrdA from Helicobacter pylori” (Molecules, 2022).

Target: the molecule itself
Test: SEC; analytical SEC, Superose 12 10/300 GL, 20 mM Tris-base pH 7.5, 150 mM NaCl, 3.8 mM nOG; HpCrdA incubated with EDTA (metal chelated); monomer-dimer equilibrium

B1: CrdA protein from Helicobacter pylori (HpCrdA) (natural protein)
chain: QTLKANDLEVKIKSVGNPIKGDNTFILSPTLKGKALEKAIVRVQFMMPEMPGMPAMKEMAQVSEKNGLYEAKTNLSMNGTWQVRVDIKSKEGQVYRAKTSLDL
notes: predicted mass of the monomer ~12.4 kDa; Residues of the pGEX-6P-1 linker probably remain after PreScission cleavage (surmised); also called HP1326; apo-HpCrdA; source: E. coli BL21(DE3), purified (GSTrap, GST cleaved with PreScission protease, Superdex 75 SEC); not shown: GST, N-terminal, cleaved
**Q.** With B1 as the protein, how does the “stoichiometry N” value read?
**A.** 2
